Measurements reported in publication PMC4211652 (Biochemistry, 2014).
No end group written: not given here.

Each binder was assayed against T1, S100B (rat), Ca2+-loaded (rat, UniProt P04631 1-92) (assay: fluorescence polarisation).
T1 sequence: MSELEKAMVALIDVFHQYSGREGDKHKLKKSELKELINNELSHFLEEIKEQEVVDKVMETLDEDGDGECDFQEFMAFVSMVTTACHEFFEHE

Binder	binding result
TRTKIDWNKILS (also: TAMRA label, position not given here) [TAMRA-labeled peptide TRTK12]	binds

Target: the molecule itself
Test: crystal structure

Binder	binding result
Ca2+-bound S100B (bovine) covalently modified at Cys84 by SC124 (natural protein, Cys84 covalently bound to the adduct of SC124 (disulfiram)) MSELEKAVVALIDVFHQYSGREGDKHKLKKSELKELINNELSHFLEEIKEQEVVDKVMETLDSDGDGECDFQEFMAFVAMITTACHEFFEHE	binds
Ca2+-bound S100B (bovine) covalently modified at Cys84 by SBi4434 (natural protein, Cys84 covalently bound to SBi4434 (2,3-bis[(2-hydroxyethyl)thio]-1,4-naphthoquinone), the thiol replacing one thioglycol moiety) MSELEKAVVALIDVFHQYSGREGDKHKLKKSELKELINNELSHFLEEIKEQEVVDKVMETLDSDGDGECDFQEFMAFVAMITTACHEFFEHE	binds
Ca2+-bound S100B (bovine) covalently modified at Cys84 by SC1475 (natural protein, Cys84 covalently bound to SC1475 (3,4-dimethoxydalbergione)) MSELEKAVVALIDVFHQYSGREGDKHKLKKSELKELINNELSHFLEEIKEQEVVDKVMETLDSDGDGECDFQEFMAFVAMITTACHEFFEHE	binds
Ca2+-bound S100B (bovine) covalently modified at Cys84 by SC1982 (natural protein, Cys84 covalently bound to SC1982 (Rubescensin A) by Michael addition) MSELEKAVVALIDVFHQYSGREGDKHKLKKSELKELINNELSHFLEEIKEQEVVDKVMETLDSDGDGECDFQEFMAFVAMITTACHEFFEHE	binds
Ca2+-bound S100B (bovine) covalently modified at Cys84 by SBi4172 (natural protein, Cys84 covalently bound to SBi4172 (chelerythrine); the compound could be modelled in chain B only) MSELEKAVVALIDVFHQYSGREGDKHKLKKSELKELINNELSHFLEEIKEQEVVDKVMETLDSDGDGECDFQEFMAFVAMITTACHEFFEHE	binds
